What is called Kd is the constant that tells how readily two partners part at equilibrium.

Drawing on patent US20210156867A1 (YEDA RESEARCH AND DEVELOPMENT, published 2021), this text covers binding result and Kd for two molecules.

The target of assay [1] is T1, recombinant human B-cell lymphoma protein 2 alpha His-Tag (Bcl-2) (human, UniProt P10415 1-211, limits assumed).
T1 construct: In the assay it was in complex with the Ni-NTA sensor compound 5; also called His-Bcl-2; not shown: His-tag
Kind of assay: fluorescence displacement assay: emission of the His-Bcl-2-compound 5 sensor complex (200 nM) after adding 800 nM protein.

The target in assay [2] is T2, mouse recombinant His-calmodulin, calcium-bound (mouse, UniProt P0DP26 1-149).
T2 construct: also called His-CaM(Ca^2+); His-CaM(Ca^+2)
Kind of assay: SPR, His-CaM immobilised on CM5 chip, analyte pre-incubated with 0.3 mM CaCl2. On the technique in general: SPR reads the build-up and loss of mass on a sensor chip optically.

Assay [3] deals with T1, recombinant human B-cell lymphoma …. Kind of assay: fluorescence displacement assay: emission of the His-Bcl-2-compound 5 sensor complex (200 nM) after adding 800 nM peptide.
Protocol: Fluorescence measurements were performed in triplicate. The emission intensities before the addition of each protein were normalized to 100*14 (FIG. 27b).

T1 sequence (P10415 1-211 limits assumed): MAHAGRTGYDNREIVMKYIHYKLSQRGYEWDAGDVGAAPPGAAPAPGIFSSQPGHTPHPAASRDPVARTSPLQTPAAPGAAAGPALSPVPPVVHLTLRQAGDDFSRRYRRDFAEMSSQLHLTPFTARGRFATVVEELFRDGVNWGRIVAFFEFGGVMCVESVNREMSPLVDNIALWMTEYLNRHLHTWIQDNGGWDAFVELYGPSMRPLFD

B1: GST-P1 (enzyme, human, UniProt P09211 1-210, looked up)
GST-P1 subunit: MPPYTVVYFPVRGRCAALRMLLADQGQSWKEEVVTVETWQEGSLKASCLYGQLPKFQDGDLTLYQSNTILRHLGRTLGLYGKDQQEAALVDMVNDGVEDLRCKYISLIYTNYEAGKDDYVKALPGQLKPFETLLSQNQGGKTFIVGDQISFADYNLLDLLLIHEVLAPGCLDAFPLLSAYVGRLSARPKLKAFLASPEYVNLPINGNGKQ
notes: recombinant; also called human recombinant GST-P1-1
Turning to B1, the binding result in assay [1] is recorded as “no binding (tested: 800 nM)”.

B2: M13 peptide, the binding fragment (26 aa peptide) of the skeletal muscle myosin light chain kinase (sk MLCK) (peptide, UniProt P07313 578-603, looked up)
peptide: KRRWKKNFIAVSAANRFKKISSSGAL
notes: check before use
B2: the Kd in assay [2] worked out at 8.8 nM. Moreover, the binding result in assay [3] was “no binding (tested: 800 nM)”.
